In patent US20040096935A1:
Several values for one entry are separate records, joined by “and”; a condition that tells them apart may be missing. Identical values can stand only once.

B1: recombinant human IL-20 expressed in CHO cells (ligand)
chain: RSPKSKRKGQGRPGPLAPGPHQVPLDLVSRMKPYARMEEYERNIEEMVAQLRNSSELAQRKCEVNLQLWMSNKRSLSPWGYSINHDPSRIPVDLPEARCLCLGCVNPFTMQEDRSMVSVPVFSQVPVRRRLCPPPPRTGPCRQRAVMETIAVGCTCIF

How the values were obtained:
[1] = molecular target: IL-17 receptor (immobilised receptor of the first BIAcore experiment of Example 8) (UniProt Q96F46); assay: BIAcore SPR; IL-17 (R&D) at 25 ug/mL over immobilised receptor
[2] = molecular target: IL-17 receptor (immobilised receptor of the first BIAcore experiment of Example 8) (UniProt Q96F46); assay: BIAcore SPR; conditioned CHO supernatant over immobilised receptor; IL-20 concentration estimated ~25 ug/mL; pC4 vector control medium ~20 RU

Row | Molecule | binding response (RU) [1] | binding response (RU) [2]
1 | recombinant human IL-17 (R&D Systems) (from UniProt Q16552 20-155) (ligand) | 60 RU | 
2 | B1 |  | 115 RU and 65 RU
